The numbers were not newly measured in paper PMC11003968, “Identification of small molecules affecting the interaction between human hemoglobin and Staphylococcus aureus IsdB hemophore” (Scientific Reports, 2024), which cites them from elsewhere.

For orientation: Kd means the equilibrium constant for the complex coming apart.

Data set [1] has as its target IsdB (Staphylococcus aureus) (UniProt A7X146). Put plainly: SPR. Background: SPR reads the build-up and loss of mass on a sensor chip optically.
In data set [2] the target is oxyhemoglobin dimer (Homo sapiens) (UniProt P69905).

Sequence of oxyhemoglobin dimer (P69905 2-142): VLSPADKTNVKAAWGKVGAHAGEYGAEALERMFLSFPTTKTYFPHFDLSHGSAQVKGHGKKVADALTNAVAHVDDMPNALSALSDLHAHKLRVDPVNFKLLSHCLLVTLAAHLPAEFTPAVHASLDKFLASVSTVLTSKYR
Sequence of oxyhemoglobin dimer (P68871 2-147, further chain): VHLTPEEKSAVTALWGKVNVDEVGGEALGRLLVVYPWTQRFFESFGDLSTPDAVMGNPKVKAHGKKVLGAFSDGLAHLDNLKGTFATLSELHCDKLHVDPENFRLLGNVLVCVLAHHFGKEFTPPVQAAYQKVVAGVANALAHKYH
Sequence of hemoglobin (P69905 2-142): as the sequence (P69905 2-142) above
Sequence of hemoglobin (P68871 2-147, further chain): as the sequence (P68871 2-147, further chain) above
Sequence of IsdB (Staphylococcus aureus) (A7X146 41-613): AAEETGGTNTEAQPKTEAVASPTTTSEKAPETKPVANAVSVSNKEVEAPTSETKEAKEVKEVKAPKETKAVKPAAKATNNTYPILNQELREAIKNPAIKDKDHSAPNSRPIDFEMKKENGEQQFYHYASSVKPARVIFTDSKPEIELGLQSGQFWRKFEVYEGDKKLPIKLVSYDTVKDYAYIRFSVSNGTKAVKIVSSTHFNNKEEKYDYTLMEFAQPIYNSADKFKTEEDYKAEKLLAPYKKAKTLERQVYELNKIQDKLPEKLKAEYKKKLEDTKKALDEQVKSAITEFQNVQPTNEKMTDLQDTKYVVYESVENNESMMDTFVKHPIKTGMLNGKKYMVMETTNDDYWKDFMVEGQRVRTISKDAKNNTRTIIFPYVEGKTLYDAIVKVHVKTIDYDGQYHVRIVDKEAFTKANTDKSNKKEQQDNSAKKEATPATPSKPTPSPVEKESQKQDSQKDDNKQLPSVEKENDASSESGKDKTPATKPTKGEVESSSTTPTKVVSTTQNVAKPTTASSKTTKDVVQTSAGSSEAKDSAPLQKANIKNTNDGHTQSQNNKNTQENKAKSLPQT

With hemoglobin (from UniProt P69905), in data set [1], the Kd was 35 nM. As for “oxyhemoglobin dimer (from UniProt P69905)”, the Kd in data set [2] was 250 nM.
